T1: sMepS-6×His-C (soluble MepS without its lipoprotein signal peptide, C-terminal His-tag), P0AFV4
T1 chain: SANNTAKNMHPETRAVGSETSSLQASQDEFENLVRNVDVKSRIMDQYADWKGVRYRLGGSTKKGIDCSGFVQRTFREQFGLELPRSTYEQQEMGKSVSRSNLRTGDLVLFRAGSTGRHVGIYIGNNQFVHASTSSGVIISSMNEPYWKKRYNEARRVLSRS


What was measured:
[1] = target: T1, sMepS-6×His-C (soluble MepS without its …); assay: ITC; conditions: chain shown with the change
[2] = target: Prc (full-length, C-terminal His-tag) (E. coli) (UniProt P23865)
[3] = target: sMepS-6×His-C (soluble MepS without its lipoprotein signal peptide, C-terminal His-tag) (E. coli) (UniProt P0AFV4); assay: ITC; iTC200, 20 °C, 20 mM HEPES pH 7.5, 300 mM NaCl, 2 mM 2-mercaptoethanol; 23 µM sMepS or Prc in the cell, 230 µM sNlpI (alone or with equimolar Prc) in the syringe; one binding site model
[4] = target: Prc (full-length, C-terminal His-tag) (E. coli) (UniProt P23865); assay: as above

Prc (full-length, C-terminal His-tag) (E. coli), sequence (P23865 23-682 limits assumed): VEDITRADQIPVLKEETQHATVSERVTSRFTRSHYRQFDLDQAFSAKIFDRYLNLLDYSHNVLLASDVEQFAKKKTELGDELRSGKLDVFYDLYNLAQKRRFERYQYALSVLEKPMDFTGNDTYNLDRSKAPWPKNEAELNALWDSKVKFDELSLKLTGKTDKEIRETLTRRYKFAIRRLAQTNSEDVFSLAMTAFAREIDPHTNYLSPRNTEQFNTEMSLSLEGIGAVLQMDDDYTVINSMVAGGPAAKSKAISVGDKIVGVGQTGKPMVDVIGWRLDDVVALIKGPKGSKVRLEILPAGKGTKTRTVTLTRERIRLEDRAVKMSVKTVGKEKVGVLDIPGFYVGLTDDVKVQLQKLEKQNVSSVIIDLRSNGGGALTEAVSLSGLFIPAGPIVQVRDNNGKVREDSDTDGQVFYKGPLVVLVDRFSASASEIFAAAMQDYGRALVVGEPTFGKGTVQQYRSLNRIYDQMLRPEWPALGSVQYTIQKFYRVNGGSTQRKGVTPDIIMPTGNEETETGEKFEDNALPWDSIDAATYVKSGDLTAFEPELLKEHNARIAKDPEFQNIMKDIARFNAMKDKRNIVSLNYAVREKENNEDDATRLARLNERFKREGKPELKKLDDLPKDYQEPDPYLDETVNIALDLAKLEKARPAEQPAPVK

Row | Kd [1] [nM] | melting temperature (T m) of Prc-sNlpI in thermal shift assay (Prc alone 40.1 °C) [2] [°C] | Kd [3] [nM] | Kd [4] [nM] | Binder
1 | 1450 |  |  |  | sNlpI (soluble NlpI without its lipoprotein signal peptide), P0AFB1 A114W (protein) SNTSWRKSEVLAVPLQPTLQQEVILARMEQILASRALTDDERAQLLYERGVLYDSLGLRALARNDFSQALAIRPDMPEVFNYLGIYLTQAGNFDWAYEAFDSVLELDPTYNYAHLNRGIALYYGGRDKLAQDDLLAFYQDDPNDPFRSLWLYLAEQKLDEKQAKEVLKQHFEKSDKEQWGWNIVEFYLGNISEQTLMERLKADATDNTSLAEHLSETNFYLGKYYLSLGDLDSATALFKLAVANNVHNFVEHRYALLELSLLGQDQDDLAESDQQ
2 |  | 53.6 | 750 | < 10 | sNlpI (soluble NlpI without its lipoprotein signal peptide) (natural protein) SNTSWRKSEVLAVPLQPTLQQEVILARMEQILASRALTDDERAQLLYERGVLYDSLGLRALARNDFSQALAIRPDMPEVFNYLGIYLTQAGNFDAAYEAFDSVLELDPTYNYAHLNRGIALYYGGRDKLAQDDLLAFYQDDPNDPFRSLWLYLAEQKLDEKQAKEVLKQHFEKSDKEQWGWNIVEFYLGNISEQTLMERLKADATDNTSLAEHLSETNFYLGKYYLSLGDLDSATALFKLAVANNVHNFVEHRYALLELSLLGQDQDDLAESDQQ

— article PMC5686067
